Assay results reported in patent US20070042970A1, “Folate-modified cholesterol-bearing pullulan as a drug carrier” (priority 2005, published 2007).

Assays:
[1] = format: physicochemical
Procedure: For example, 5.0 mg of FA-CHP can simply complex with 0.01 mg of DOX. Complexes of DOX with a mixture of FA-CHP and CHP are denoted as FA-CHP-CHP-DOX hereafter.

TIG-1-20 cells = test: Cell counting experiment (trypan blue, hematocytometer); format: cell-based; settings: 0.2 mg/L DOX; at least for 2 days; folate-depleted DMEM
Procedure: Cells of either KB or TIG-1-20 were plated in 6 well cultivation plates and preincubated for 2-3 days, and each cultivation medium was replaced with new one (1.98 ml) just before the addition of anticancer reagents (0.02 ml). At the time of the addition, cell densities were about 5×10^4/ml for TIG-1-20, and about 15×10^4/ml for KB (each ca. 20-25% of their confluent states). The additives mainly used were; Control 1: PBS, Control 2 (FC): FA-CHP (1 mg)-CHP (4 mg) complex solution in 1 ml PBS, DOX 1: 0.02 mg doxorubicin/ml-PBS, DOX 2: 0.03 mg doxorubicin/ml-PBS, FA-CHP-CHP-DOX 1 (FCD 1): FA-CHP (1 mg)-CHP (4 mg)-DOX (0.02 mg) in 1 ml PBS, FA-CHP-CHP-DOX 2 (FCD 2): FA-CHP (1 mg)-CHP (4 mg)-DOX (0.03 mg) in 1 ml PBS. Drug mixtures with other composition were also tested essentially by the same procedure.
The culture medium was removed to 15 ml centrifugation tube, and cells remained attached to the dish were removed with Sigma cell dissociation solution (non-enzymatic, in PBS) in the case of KB, and with 0.05% trypsin and 0.02% EDTA solution in the case of TIG-1-20. […] After mixing with pipetting, all cells were counted on improved Neubauer hematocytometer. Detached cells were also counted by the same procedure after adjusting the removed medium to 2 ml.

folate modified cholesterol-bearing pullulan [FA-CHP]
solubility in PBS [1]: easily soluble

COc1cccc2c1C(=O)c1c(O)c3c(c(O)c1C2=O)C[C@@](O)(C(=O)CO)C[C@@H]3O[C@H]1C[C@H](N)[C@H](O)[C@H](C)O1 [DOX, Doxorubicin]
TIG-1-20 cell death / proliferation (cell number counting) (TIG-1-20 cells): completely killed cell proliferation
